Experimental data taken from publication PMC2139825.

Molecular target: bacterially expressed full-length chicken CRP1 (chicken) (UniProt P67966)
Assay: radioligand binding

Sequence of UniProt P67966 (P67966 whole entry): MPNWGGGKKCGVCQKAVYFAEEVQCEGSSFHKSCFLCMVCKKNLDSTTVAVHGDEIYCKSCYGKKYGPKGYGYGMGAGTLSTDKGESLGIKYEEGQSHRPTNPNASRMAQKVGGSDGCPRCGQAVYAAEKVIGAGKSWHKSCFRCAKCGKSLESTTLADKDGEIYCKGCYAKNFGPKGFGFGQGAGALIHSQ

“α-actinin (avian smooth muscle) (from UniProt P05094 1-893) (natural protein)” gave a Kd of 1800 nM and a cpm bound specifically (0.26 pmoles [125I]α-actinin in 120 μl, no competitor) of 3080 cpm.
